The text below walks through data of patent US20030082561, “Zinc finger domain recognition code and uses thereof” (published 2003).

The target of the data set is AL1 ZFP (Clone 1) (artificial). Put plainly: EMSA; significant binding at 14-35 nM; text prints SEQ ID NO 27 for the bound probe, apparently meaning the G (wild-type) probe SEQ ID NO 26. The conditions noted are these: tags: three Sp1C domain 2 framework fingers, pET21-a, E. coli BL21(DE3)pLysS; label: 5'-32P. Background: In EMSA bound probe runs differently from free probe, usually more slowly.
AL1 ZFP (Clone 1) (artificial), sequence (chain, as listed by the source): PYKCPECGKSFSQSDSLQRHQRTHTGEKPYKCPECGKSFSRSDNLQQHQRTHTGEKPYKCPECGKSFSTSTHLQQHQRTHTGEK

B1: AL1 probe G (wild type) (dsDNA)
DNA 1: TATATATAAGTAAGGTAGTATATATA
DNA 2: TATATATACTACCTTACTTATATATA
On to B1, for which the binding result was “binds”.
